Measurements reported in US20110243929A1 (MEDLMMUNE, published 2011).
Several values for one entry are separate records, joined by “and”; a condition that tells them apart may be missing. Equal values may be shown once.

How the values were obtained:
[1] = target: T1, Human FcγRIIa (human, UniProt P12318); assay: BIAcore 3000; IgG immobilized on CM5 chip, soluble FcγR extracellular domain injected; equilibrium 1:1 binding isotherm
T1 construct: extracellular domain
T1 sequence (extracellular domain, looked up): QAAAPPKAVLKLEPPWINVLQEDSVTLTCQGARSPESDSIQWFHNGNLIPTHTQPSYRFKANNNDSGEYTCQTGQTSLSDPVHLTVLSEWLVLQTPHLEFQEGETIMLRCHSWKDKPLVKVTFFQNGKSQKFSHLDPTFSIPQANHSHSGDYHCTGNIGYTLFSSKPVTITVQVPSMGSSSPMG
Method: (§1) The measurements are performed according to standard protocols. Briefly, all IgGs are immobilized onto separate flow cells of two CM5 sensor chips using standard amino coupling chemistry as recommended by the manufacturer. […] Stock solutions of the recombinantly expressed extracellular domains of all FcγRs at either 4000 or 16000 nM are prepared and then serially diluted down to the desired concentrations using the instrument buffer (50 mM HBS buffer containing 0.01 M HEPES, pH 7.4, 0.15 M NaCl, 3 mM EDTA and 0.005% P-20). Duplicate injections of each concentration of FcγR ared then injected over all of the IgG surfaces at a flow rate of 5 μL/min. Binding data are collected for approximately […], followed by a 30 sec. pulse of 5 mM HCl between injections to regenerate the IgG surfaces. Several buffer injections are also interspersed throughout the injection series. One of these buffer injections is used along with the reference cell data to correct the raw data sets. After all binding data is collected, individual data sets are averaged for each y concentration, then fit to a 1:1 binding isotherm from which the equilibrium binding constants, KD, are derived. Analysis is carried out using the BIAevaluation software.

[2] = target: T2, Cynomolgus FcγRIIa (Macaca fascicularis, UniProt A0A140HDN0); assay: as above
T2 construct: extracellular domain
T2 sequence (extracellular domain): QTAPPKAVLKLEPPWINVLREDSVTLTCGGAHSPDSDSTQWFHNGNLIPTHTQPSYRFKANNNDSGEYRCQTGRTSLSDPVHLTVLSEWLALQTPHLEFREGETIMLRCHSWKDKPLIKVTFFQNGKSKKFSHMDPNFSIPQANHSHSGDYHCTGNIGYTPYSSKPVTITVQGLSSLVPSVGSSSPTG
Method: as §1

[3] = target: T3, Human FcγRIIb (human, UniProt P31994); assay: as above
T3 construct: extracellular domain; Only the IC9G1-aFuc cell is filled
T3 sequence (extracellular domain, looked up): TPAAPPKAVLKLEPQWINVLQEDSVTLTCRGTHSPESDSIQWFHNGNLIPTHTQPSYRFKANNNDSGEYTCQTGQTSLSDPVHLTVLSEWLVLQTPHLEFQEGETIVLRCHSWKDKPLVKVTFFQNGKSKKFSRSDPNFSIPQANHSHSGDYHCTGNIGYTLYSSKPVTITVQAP
Method: as §1

[4] = target: T4, Cynomolgus FcγRIIb (Macaca fascicularis, UniProt A0A140HDP4); assay: as above
T4 construct: extracellular domain
T4 sequence (extracellular domain): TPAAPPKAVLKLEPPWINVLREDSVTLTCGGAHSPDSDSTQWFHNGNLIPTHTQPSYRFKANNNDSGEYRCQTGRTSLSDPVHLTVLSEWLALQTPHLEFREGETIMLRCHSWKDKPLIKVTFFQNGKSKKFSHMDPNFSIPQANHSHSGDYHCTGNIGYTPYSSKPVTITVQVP
Method: as §1

[5] = target: T5, cynomolgus FcγRIIIA, recombinantly expressed extracellular domain (cynomolgus, UniProt Q8SPW2 17-208); assay: as above
T5 construct: extracellular domain; also called cynomolgus FcgRIIIa
Method: as §1

[6] = target: T6, cynomolgus ICOS (cynomolgus, UniProt A0A2K5TQR6 21-168); assay: cell-based or functional assay
T6 sequence: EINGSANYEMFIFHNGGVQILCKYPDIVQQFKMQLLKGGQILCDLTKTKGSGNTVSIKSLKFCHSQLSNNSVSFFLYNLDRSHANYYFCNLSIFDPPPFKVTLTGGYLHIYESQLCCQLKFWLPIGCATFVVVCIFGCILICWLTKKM

[7] = target: T7, human ICOS (human, UniProt Q9Y6W8 21-199); assay: cell-based or functional assay
T7 sequence: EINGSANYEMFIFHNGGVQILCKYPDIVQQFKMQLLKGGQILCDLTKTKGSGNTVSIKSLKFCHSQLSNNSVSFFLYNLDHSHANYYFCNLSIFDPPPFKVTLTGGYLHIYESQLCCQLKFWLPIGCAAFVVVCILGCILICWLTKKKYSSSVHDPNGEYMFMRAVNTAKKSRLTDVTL

[8] = target: T6, cynomolgus ICOS; assay: cell-based or functional assay; remark: listed apart in the source
[9] = target: T6, cynomolgus ICOS; assay: cell-based or functional assay; remark: listed apart in the source

T5 sequence (Q8SPW2 17-208): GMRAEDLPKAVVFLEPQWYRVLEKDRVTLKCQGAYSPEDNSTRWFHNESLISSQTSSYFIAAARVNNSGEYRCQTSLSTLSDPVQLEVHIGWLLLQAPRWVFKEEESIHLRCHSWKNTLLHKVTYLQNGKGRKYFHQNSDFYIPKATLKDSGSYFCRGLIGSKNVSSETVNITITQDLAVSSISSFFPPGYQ

Kd [1] [nM] | Kd [2] [nM] | Kd [3] [nM] | Kd [4] [nM] | Kd [5] [nM] | EC50 of ADCC activity (isolated human NK effector cells, 2:1, overnight) [7] [nM] | EC50 of ADCC activity (isolated human NK effector cells, 2:1, overnight) [8] | Binder | EC50 of ADCC (% cytotoxicity; human NK effector cells, isolated cynomolgus splenic T cells as targets) [6] [µg/mL] | EC50 of ADCC (% cytotoxicity; human NK effector cells, isolated cynomolgus mesenteric lymph node T cells as targets) [9] [µg/mL]
2010 | 3140 | 14000 | 1950 | 21 | 0.0082 | 0.0146 nM and 0.0171 nM | IC9G1-aFuc (afucosylated IC9G1 antibody composition) (antibody, human IgG1, kappa, chain 1 pos 305 (Asn297, EU numbering): complex N-glycoside-linked sugar chain without fucose on the reducing-end N-acetylglucosamine, written N, Same polypeptides as IC9G1 (JMab-136 VH/VK, human IgHγ1 constant region, kappa); also called IG9G1-aFuc; ICG91-aFuc; copies: 2 + 2) heavy: not shown light: DIQMTQSPSSVSASVGDRVTITCRASQGISRLLAWYQQKPGKAPKLLIYVASSLQSGVPSRFSGSGSGTDFTLTISSLQPEDFATYYCQQANSFPWTFGQGTKVEIKRTVAAPSVFIFPPSDEQLKSGTASVVCLLNNFYPREAKVQWKVDNALQSGNSQESVTEQDSKDSTYSLSSTLTLSKADYEKHKVYACEVTHQGLSSPVTKSFNRGEC | 0.00205 | 0.0024
3310 | 5280 |  | 2370 | 394 | 0.0604 | 0.236 nM and 0.198 nM | IC9G1 (anti ICOS antibody comprising JMab-136 VH and VL domains and the IgHγ1 constant region) (antibody, human IgG1, kappa, The rest is a human IgHγ1 constant region (IgG1) and a human IgLK (kappa) constant region; copies: 2 + 2) heavy: not shown light: DIQMTQSPSSVSASVGDRVTITCRASQGISRLLAWYQQKPGKAPKLLIYVASSLQSGVPSRFSGSGSGTDFTLTISSLQPEDFATYYCQQANSFPWTFGQGTKVEIKRTVAAPSVFIFPPSDEQLKSGTASVVCLLNNFYPREAKVQWKVDNALQSGNSQESVTEQDSKDSTYSLSSTLTLSKADYEKHKVYACEVTHQGLSSPVTKSFNRGEC | 0.0331 | 0.0278
